Laboratory results: article PMC4737396 (British Journal of Pharmacology, 2015)

Key:
perfused rat pancreas = settings: 100 nM (Pro3)GIP, 1 nM GIP, 10 mM arginine, 7 mM glucose, radioimmunoassay, N=6-9
[1] = system: perfused pancreata from GIPR KO mice; settings: 100 nM mouse (Pro3)GIP, 1 nM mouse GIP, 10 mM arginine, 7 mM glucose, N=3
GIP receptor = settings: read-out: affinity (IC50); ref Deacon et al., 2006; cited from earlier work
pigs = settings: ref Deacon et al., 2006; cited from earlier work
[2] = target: Human GIP receptor (human) (UniProt P48546); assay: radioligand binding
[3] = target: Mouse GIP receptor (mouse) (UniProt Q0P543); assay: radioligand binding
[4] = target: Human GIP receptor (human) (UniProt P48546)
[5] = target: Mouse GIP receptor (mouse) (UniProt Q0P543)
Rat GIP receptor (rat) [6] = target: Rat GIP receptor (rat) (UniProt P43219); assay: radioligand binding
Rat GIP receptor (rat) [7] = target: Rat GIP receptor (rat) (UniProt P43219)
Rat GIP receptor (rat) [8] = target: Rat GIP receptor (rat) (UniProt P43219); remark: listed apart in the source
Mouse GIP receptor [9] = target: T1, Mouse GIP receptor (mouse, UniProt Q0P543 19-460); assay: cell-based or functional assay
T1 sequence: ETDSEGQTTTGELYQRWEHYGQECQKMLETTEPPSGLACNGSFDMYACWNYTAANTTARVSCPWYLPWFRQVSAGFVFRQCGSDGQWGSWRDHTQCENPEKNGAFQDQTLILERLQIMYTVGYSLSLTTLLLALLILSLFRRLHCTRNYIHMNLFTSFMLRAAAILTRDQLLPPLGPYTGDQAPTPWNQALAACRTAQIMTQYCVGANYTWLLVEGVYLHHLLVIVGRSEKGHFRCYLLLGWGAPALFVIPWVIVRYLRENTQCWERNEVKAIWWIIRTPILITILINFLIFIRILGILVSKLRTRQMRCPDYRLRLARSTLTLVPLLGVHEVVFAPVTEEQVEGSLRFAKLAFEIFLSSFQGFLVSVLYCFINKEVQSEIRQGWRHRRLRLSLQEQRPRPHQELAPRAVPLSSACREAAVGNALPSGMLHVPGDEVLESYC

Human GIP receptor [10] = target: T2, Human GIP receptor (human, UniProt P48546 22-466); assay: cell-based or functional assay
T2 sequence: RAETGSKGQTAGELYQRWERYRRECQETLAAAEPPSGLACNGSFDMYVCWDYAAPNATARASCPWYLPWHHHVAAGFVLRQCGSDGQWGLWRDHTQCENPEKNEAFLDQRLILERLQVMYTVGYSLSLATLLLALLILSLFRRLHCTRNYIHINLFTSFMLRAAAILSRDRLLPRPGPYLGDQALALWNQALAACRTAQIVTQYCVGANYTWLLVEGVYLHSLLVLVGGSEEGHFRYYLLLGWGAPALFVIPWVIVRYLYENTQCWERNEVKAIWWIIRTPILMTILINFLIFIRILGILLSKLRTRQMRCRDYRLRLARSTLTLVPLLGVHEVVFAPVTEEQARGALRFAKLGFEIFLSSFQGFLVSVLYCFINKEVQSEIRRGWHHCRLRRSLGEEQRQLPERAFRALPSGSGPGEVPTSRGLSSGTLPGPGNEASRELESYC

Rat GIP receptor [11] = target: T3, Rat GIP receptor (rat, UniProt P43219 19-455); assay: cell-based or functional assay
T3 sequence: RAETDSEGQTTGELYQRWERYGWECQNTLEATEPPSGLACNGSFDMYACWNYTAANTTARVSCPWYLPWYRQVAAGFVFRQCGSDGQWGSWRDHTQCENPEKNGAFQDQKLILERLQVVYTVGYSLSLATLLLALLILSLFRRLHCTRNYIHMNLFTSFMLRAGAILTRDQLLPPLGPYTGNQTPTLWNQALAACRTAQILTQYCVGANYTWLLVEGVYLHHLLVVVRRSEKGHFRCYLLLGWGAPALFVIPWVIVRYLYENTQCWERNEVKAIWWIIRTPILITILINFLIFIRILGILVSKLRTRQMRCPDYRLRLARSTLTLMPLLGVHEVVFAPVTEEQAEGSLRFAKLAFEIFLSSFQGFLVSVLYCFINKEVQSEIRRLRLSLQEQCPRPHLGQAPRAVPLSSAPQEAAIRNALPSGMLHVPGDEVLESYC

Human GIP receptor [12] = target: T2, Human GIP receptor; assay: radioligand binding
Rat GIP receptor [13] = target: T3, Rat GIP receptor; assay: radioligand binding
Mouse GIP receptor [14] = target: T1, Mouse GIP receptor; assay: radioligand binding

With `N=C(N)NCCC[C@H](N)C(=O)O` [arginine] the glucagon secretion (perfused rat pancreas) was “induced secretion of the respective hormones”, the insulin secretion (perfused rat pancreas) was “induced secretion of the respective hormones” and the somatostatin secretion (perfused rat pancreas) was “induced secretion of the respective hormones”. For the same molecule, the glucagon secretion [1] was “induced secretion of the respective hormones”, the insulin secretion [1] was “induced secretion of the respective hormones” and the somatostatin secretion [1] was “induced secretion of the respective hormones”.

In the case of “GIP(3–42): naturally occurring GIP metabolite (EGTFISDYSIAMDKIHQQDFVNWLLAQKGKKNDWKHNITQ; Gastric inhibitory polypeptide; UniProt P09681 54-93, looked up, fragment)”, the IC50 (GIP receptor) is listed as 22 nM and the “antagonistic effect in vivo” value (pigs) is listed as “no antagonistic effect could be demonstrated”.

Human (Pro3)GIP (peptide) showed a logIC50 [2] of -8, a logIC50 [3] of -7.4 and an EC50 of cAMP accumulation in transfected COS-7 cells [4] of 4.7 nM. For the same molecule, the EC50 of cAMP accumulation in transfected COS-7 cells [5] was 92 nM and the Emax of cAMP accumulation in transfected COS-7 cells [5] was 71.

Work on “Mouse (Pro3)GIP (from UniProt P48756 44-85) (peptide)” yielded a logIC50 (Rat GIP receptor (rat) [6]) of -8.1, a logIC50 [2] of -8.1 and a logIC50 [3] of -8.3. For the same molecule, the EC50 of cAMP accumulation in transfected COS-7 cells (Rat GIP receptor (rat) [7]) was 15 nM, the Emax of cAMP accumulation in transfected COS-7 cells (Rat GIP receptor (rat) [7]) was 61 and the Emax of cAMP accumulation in transfected COS-7 cells [4] was 67. For the same molecule, the EC50 of cAMP accumulation in transfected COS-7 cells [5] was 29 nM and the Emax of cAMP accumulation in transfected COS-7 cells [5] was 59.

With “Rat (Pro3)GIP (from UniProt Q06145 44-85) (peptide)” the logIC50 [3] was -8.1, the Emax of cAMP accumulation, normalised to rat GIP on the rat receptor (Figure 2B) (Rat GIP receptor (rat) [8]) was 50% and the EC50 of cAMP accumulation in transfected COS-7 cells (Rat GIP receptor (rat) [7]) was 13 nM. It also gave an Emax of cAMP accumulation in transfected COS-7 cells (Rat GIP receptor (rat) [7]) of 64, an Emax of cAMP accumulation in transfected COS-7 cells [4] of 73 and an EC50 of cAMP accumulation in transfected COS-7 cells [5] of 38 nM. It also gave an Emax of cAMP accumulation in transfected COS-7 cells [5] of 57.

With YAEGTFISDYSIAMDKIRQQDFVNWLLAQRGKKSDWKHNITQ (ligand) [Mouse GIP (glucose-dependent insulinotropic polypeptide, GIP(1-42))] the “Emax of cAMP accumulation in transfected COS-7 cells” value (shortened to “Emax … in transfected COS-7 cells”) (Mouse GIP receptor [9]) was 156, the “Emax … in transfected COS-7 cells” value (Human GIP receptor [10]) was 99 and the “Emax … in transfected COS-7 cells” value (Rat GIP receptor [11]) was 120. It also gave a Ki (Human GIP receptor [12]) of 2 nM, a logIC50 (Human GIP receptor [12]) of -8.7 and a logIC50 (Rat GIP receptor [13]) of -8.9.

With YAEGTFISDYSIAMDKIHQQDFVNWLLAQKGKKNDWKHNITQ (ligand) [Human GIP (glucose-dependent insulinotropic polypeptide, GIP(1-42))] the “Emax … in transfected COS-7 cells” value (Rat GIP receptor [11]) was 100.

In the case of YAEGTFISDYSIAMDKIRQQDFVNWLLAQKGKKNDWKHNLTQ (ligand) [Rat GIP (glucose-dependent insulinotropic polypeptide, GIP(1-42))], the “Emax … in transfected COS-7 cells” value (Mouse GIP receptor [9]) is reported as 144, the “Emax … in transfected COS-7 cells” value (Human GIP receptor [10]) is reported as 113 and the “Emax … in transfected COS-7 cells” value (Rat GIP receptor [11]) is reported as 117. The logIC50 (Mouse GIP receptor [14]) was -9.6 and the logIC50 (Human GIP receptor [12]) was -8.9.
